Experimental data as given in US4286063A, “Method for producing thrombolytic preparation” (The Green Cross Corporation, priority 1978, dated 1981).

Key:
[1] = test system: urokinase; assay: Effect of heat stabilizers on residual urokinase activity after heat treatment; type: physicochemical; details: for residual urokinase activity in the presence of heat stabilizer: after heat treatment, concentrations of Table 2
[2] = test system: urokinase; assay: Residual urokinase activity and molecular weight distribution after dialysis against outer liquids of different pH; type: physicochemical, human urine; details: 40 hours at 4° C.
Method: The interrelationship between pH and the ratio of residual urokinase activity as well as the molecular weight distribution:
The resulting solution was dialyzed for 40 hours at 4° C. against an outer liquid of water, a 1 M sodium acetate buffer solution of pH 3.0, 4.0, 5.0, 6.0, 7.0, 8.0, 9.0, 11.0 or 12.0 or a 1/15 M phosphate buffer solution, while renewing the outer liquid at a time interval of 8 hours. After completion of the dialysis, the ratio of residual activity was assayed and molecular weight distribution was roughly evaluated by the molecular sieving by means of gel filtration technique.

[3] = test system: urokinase; assay: Stability of urokinase in heat treatment (60° C., 10 hours), dependence on pH; type: physicochemical
Method: Dependence of the stability of urokinase in heat treatment on pH:
A phosphate buffer solution was added in various concentrations to an aqueous urokinase solution [specific activity, 15,000 IU/mg; protein concentration, 0.02% (W/V)] to prepare samples of urokinase solutions having pH of 4, 5, 6, 7, 8, 9 and 10. Each sample was heated at 60° C. for 10 hours and the residual activity was compared. After the heat treatment, the heat stabilizer was removed by dialysis and the urokinase activity was assayed to calculate the ratio of residual activity by taking the specific activity before heating as 100%.

[4] = heat stabilizer concentration 0.1 M
[5] = heat stabilizer concentration 5%
[6] = heat stabilizer concentration 10%
[7] = heat stabilizer concentration 15%

Compound: N=C(N)NCCC[C@H](N)C(=O)O [Arginine, arginine]
- residual urokinase activity in the presence of heat stabilizer [1]: 79%
- Ratio of residual urokinase activity [1, 4]: 79%

Compound: O=C(O)CN(CCN(CC(=O)O)CC(=O)O)CC(=O)O [EDTA]
- Ratio of residual urokinase activity ([1]; heat stabilizer concentration 0.1%): 23%

Compound: NCC(=O)O [Glycine, glycine]
- residual urokinase activity in the presence of heat stabilizer [1]: 65-75%
- Ratio of residual urokinase activity [1, 5]: 65%
- Ratio of residual urokinase activity [1, 6]: 70%
- Ratio of residual urokinase activity [1, 7]: 75%

Compound: NCCCC[C@H](N)C(=O)O [Lysine, lysine]
- residual urokinase activity in the presence of heat stabilizer [1]: 78%
- Ratio of residual urokinase activity [1, 4]: 78%

Compound: OC[C@@H](O)[C@@H](O)[C@H](O)[C@H](O)CO [Mannit, mannitol]
- residual urokinase activity in the presence of heat stabilizer [1]: 78%
- Ratio of residual urokinase activity [1, 5]: 73%
- Ratio of residual urokinase activity [1, 6]: 73%

Compound: [Cl-].[Na+] [Sodium chloride, sodium chloride]
- residual urokinase activity in the presence of heat stabilizer [1]: 71-75%
- Ratio of residual urokinase activity ([1]; heat stabilizer concentration 0.15 M): 71%
- Ratio of residual urokinase activity ([1]; heat stabilizer concentration 0.3 M): 75%

Compound: OC[C@H]1O[C@@](CO)(O[C@H]2O[C@H](CO)[C@@H](O)[C@H](O)[C@H]2O)[C@@H](O)[C@@H]1O [Sucrose, sucrose]
- residual urokinase activity in the presence of heat stabilizer [1]: 75-78%
- Ratio of residual urokinase activity [1, 5]: 75%
- Ratio of residual urokinase activity [1, 6]: 77%
- Ratio of residual urokinase activity [1, 7]: 78%

Compound: Gelatin
- residual urokinase activity in the presence of heat stabilizer [1]: 88-100%
- Ratio of residual urokinase activity ([1]; heat stabilizer concentration 0.5%): 88%
- Ratio of residual urokinase activity ([1]; heat stabilizer concentration 1.0%): 91%
- Ratio of residual urokinase activity ([1]; heat stabilizer concentration 3.0%): 89%

Compound: urokinase
- Activity after dialysis ([2]; Run 1, pH of outer liquid 3): 6,324 IU
- Ratio of residual activity ([2]; Run 1, pH of outer liquid 3): 65
- Activity after dialysis ([2]; Run 2, pH of outer liquid 4): 6,314 IU
- Ratio of residual activity ([2]; Run 2, pH of outer liquid 4): 64
- Activity after dialysis ([2]; Run 3, pH of outer liquid 5): 6,426 IU
- Ratio of residual activity ([2]; Run 3, pH of outer liquid 5): 66
- Activity after dialysis ([2]; Run 4, pH of outer liquid 6): 7,252 IU
- Ratio of residual activity ([2]; Run 4, pH of outer liquid 6): 74
- Activity after dialysis ([2]; Run 5, pH of outer liquid 7): 8,296 IU
- Ratio of residual activity ([2]; Run 5, pH of outer liquid 7): 85
- Activity after dialysis ([2]; Run 6, pH of outer liquid 8): 10,290 IU
- Ratio of residual activity ([2]; Run 6, pH of outer liquid 8): 105
- Activity after dialysis ([2]; Run 7, pH of outer liquid 9): 9,672 IU
- Ratio of residual activity ([2]; Run 7, pH of outer liquid 9): 99
- Activity after dialysis ([2]; Run 8, pH of outer liquid 11): 9,016 IU
- Ratio of residual activity ([2]; Run 8, pH of outer liquid 11): 92
- Activity after dialysis ([2]; Run 9, pH of outer liquid 12): 8,722 IU
- Ratio of residual activity ([2]; Run 9, pH of outer liquid 12): 89
- Activity after dialysis ([2]; outer liquid H2O): 8,514 IU
- Ratio of residual activity ([2]; outer liquid H2O): 86
- ratio of residual activity after heat treatment ([3]; pH 7, phosphate buffer): 52%
- ratio of residual activity after heat treatment ([3]; pH 8, phosphate buffer): 65%
- ratio of residual activity after heat treatment ([3]; pH 9, phosphate buffer): 50%
- Ratio of residual urokinase activity ([1]; heat stabilizer absent, pH 6.8 with 0.1 M phosphate buffer): 65%
- Ratio of residual urokinase activity ([1]; no phosphate buffer, pH not adjusted): 0%
